Results from patent publication US20230212258A1 (MCMASTER UNIVERSITY, published 2023).

Columns and labels:
Her2Fc [1] = target: T1, Her2Fc (UniProt P04626 23-652, limits assumed); experiment: flow cytometry, transduced T cells incubated with Her2Fc (FIG. 2)
T1 construct: It is printed both as Her2Fc and as FcHer2; also called FcHer2; FcHer2 antigen; not shown: Fc part
Method: T-cells had been incubated with Her2Fc, which later was detected via flow cytometry. The presented data was gated on CD8+ lymphocytes. The shown gates were chosen based on the untransduced control.

Her2Fc [2] = target: T1, Her2Fc; experiment: flow cytometry, engineered PBMC, NGFR marker and FcHer2 (FIG. 16B)
Lck = Lck (UniProt P06239 2-509, limits assumed); experiment: pull-down from 293TM lysates on Her2 antigen beads, western blot for Lck
Sequence of Lck (P06239 2-509 limits assumed): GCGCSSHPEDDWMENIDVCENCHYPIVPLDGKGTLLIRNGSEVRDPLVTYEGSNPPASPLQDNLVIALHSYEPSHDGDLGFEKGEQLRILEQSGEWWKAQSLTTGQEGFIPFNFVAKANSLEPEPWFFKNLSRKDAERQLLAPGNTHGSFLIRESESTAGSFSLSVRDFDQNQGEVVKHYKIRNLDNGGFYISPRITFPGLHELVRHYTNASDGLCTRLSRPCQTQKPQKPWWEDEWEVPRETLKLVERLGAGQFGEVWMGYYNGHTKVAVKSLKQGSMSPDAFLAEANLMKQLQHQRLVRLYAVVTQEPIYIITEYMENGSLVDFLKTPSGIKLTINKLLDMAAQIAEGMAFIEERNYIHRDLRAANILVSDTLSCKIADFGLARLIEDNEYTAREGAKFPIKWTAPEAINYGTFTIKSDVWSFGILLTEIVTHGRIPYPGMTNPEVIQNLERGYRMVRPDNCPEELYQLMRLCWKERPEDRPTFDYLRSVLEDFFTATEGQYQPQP
Method: In FIG. 13A, Her2 antigen was covalently attached to magnetic beads. […] Beads were incubated with cell lysates over night and subsequently washed and western blotted. Lck was detected using an Lck antibody, TACs were detected via Myc antibody. […] Signal was corrected relative to the negative control.

B1: N-Darpin Tri-TAC (receptor)
chain: MSRGSDLGKKLLEAARAGQDDEVRILMANGADVNAKDEYGLTPLYLATAHGHLEIVEVLLKNGADVNAVDAIGFTPLHLAAFIGHLEIAEVLLKHGADVNAQDKFGKTAFDISIGNGNEDLAEILQKLNEQKLISEEDLNPGGGGGSGGGGSGGGGSGGGGSGSMDIQMTQTTSSLSASLGDRVTISCRASQDIRNYLNWYQQKPDGTVKLLIYYTSRLHSGVPSKFSGSGSGTDYSLTISNLEQEDIATYFCQQGNTLPWTFAGGTKLEIKGGGGSGGGGSGGGGSGGGGSEVQLQQSGPELVKPGASMKISCKASGYSFTGYTMNWVKQSHGKNLEWMGLINPYKGVSTYNQKFKDKATLTVDKSSSTAYMELLSLTSEDSAVYYCARSGYYGDSDWYFDVWGQGTTLTVFSTSGGGGSLESGQVLLESNIKVLPTWSTPVQPMALIVLGGVAGLLLFIGLGIFFCVRCRHRRRQAERMSQIKRLLSEKKTCQCPHRFQKTCSPI
notes: Chimeric receptor expressed on engineered human T cells (in 293TM cells for the pull-down); also called full length CD4-TAC
binding result (Her2Fc [1]): binds

B2: CD4 TAC A85V, T161P mutant (receptor)
chain: MSRGSDLGKKLLEAARAGQDDEVRILMANGADVNAKDEYGLTPLYLATAHGHLEIVEVLLKNGADVNAVDAIGFTPLHLAAFIGHLEIAEVLLKHGADVNAQDKFGKTAFDISIGNGNEDLAEILQKLNEQKLISEEDLNPGGGGGSGGGGSGGGGSGGGGSGSMDIQMTQTTSSLSASLGDRVTISCRASQDIRNYLNWYQQKPDGTVKLLIYYTSRLHSGVPSKFSGSGSGTDYSLTISNLEQEDIVTYFCQQGNTLPWTFAGGTKLEIKGGGGSGGGGSGGGGSGGGGSEVQLQQSGPELVKPGASMKISCKASGYSFTGYPMNWVKQSHGKNLEWMGLINPYKGVSTYNQKFKDKATLTVDKSSSTAYMELLSLTSEDSAVYYCARSGYYGDSDWYFDVWGQGTTLTVFSTSGGGGSLESGQVLLESNIKVLPTWSTPVQPMALIVLGGVAGLLLFIGLGIFFCVRCRHRRRQAERMSQIKRLLSEKKTCQCPHRFQKTCSPI
notes: CD4 TAC with the mutated UCHT1 domain; also called UCHT1 (A85V, T161P)
binding result (Her2Fc [2]): binds

B3: CD4 TAC -cytosol (receptor)
chain: MSRGSDLGKKLLEAARAGQDDEVRILMANGADVNAKDEYGLTPLYLATAHGHLEIVEVLLKNGADVNAVDAIGFTPLHLAAFIGHLEIAEVLLKHGADVNAQDKFGKTAFDISIGNGNEDLAEILQKLNEQKLISEEDLNPGGGGGSGGGGSGGGGSGGGGSGSMDIQMTQTTSSLSASLGDRVTISCRASQDIRNYLNWYQQKPDGTVKLLIYYTSRLHSGVPSKFSGSGSGTDYSLTISNLEQEDIATYFCQQGNTLPWTFAGGTKLEIKGGGGSGGGGSGGGGSGGGGSEVQLQQSGPELVKPGASMKISCKASGYSFTGYTMNWVKQSHGKNLEWMGLINPYKGVSTYNQKFKDKATLTVDKSSSTAYMELLSLTSEDSAVYYCARSGYYGDSDWYFDVWGQGTTLTVFSTSGGGGSLESGQVLLESNIKVLPTWSTPVQPMALIVLGGVAGLLLFIGLGIFF
notes: It was detected through its Myc tag in the pull-down; also called TAC cytosolic deletion variant; cytosolic deletion
binding result (Lck): no binding
